Results taken from the supplement of paper PMC12764529.
± gives the half width of the 95% confidence interval.

What was measured:
[1] = folding stability dG unfold from trypsin proteolysis; higher = more stable
In short: (§1)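 K50 was inferred by Bayesian fitting of sequencing counts obtained after protease digestion of designed mini-proteins. Unfolding free energy was derived by comparison with a sequence-predicted unfolded-state K50 and a shared folded-state K50, for each protease or both combined. The mini-proteins were under 80 residues, had no cysteine, were carried in a PA-tagged cDNA display construct, and were kept only if AlphaFold2 dimer inter-PAE exceeded 15.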

[2] = folding stability dG unfold from chymotrypsin proteolysis; higher = more stable
In short: as §1

[3] = folding stability dG unfold (combined trypsin and chymotrypsin); higher = more stable
In short: as §1

Row | Sequence | folding stability dG unfold [1] [kJ/mol] | folding stability dG unfold [2] [kJ/mol] | folding stability dG unfold [3] [kJ/mol]
1 | SAMKITIEEVEVKEGDTVTIRIDASEEELENFLKELAEKLGAEVVEVEVKKNENGSLEVTVKVKEVKKPSAG [r14_655_TrROS_Hall] | 5.02 ± 0.46 | 1.99 ± 0.544 | 4.37 ± 0.711
2 | SAMKITIEVIKLPDGYYVVRITVYDKNGEKVEERELVFSSLEDLLAALKELFPDQKVTVEIRKVTKEELSAG [r14_964_TrROS_Hall] | 9.02 ± 0.669 | 17.3 ± 0.962 | 15.8 ± 0.753
3 | SAMKIVEIVEYDKEKKKIRIKIEVNGKLLEIEIEAESEEEVEEALKKLKEELEFELPDGKKVRITEIEISAG [r14_422_TrROS_Hall] | 3.13 ± 0.628 | 8.69 ± 0.586 | 6.82 ± 1.17
4 | SAMKKLTEEEIEKLAKELAKEGKVEIKIKVEKKVVKNKNGKKKEVTKVKIEIKAPPEAKKKLEKLKKKLSAG [r14_628_TrROS_Hall] | 1.74 ± 1.42 | 4.15 ± 0.795 | 1.5 ± 3.31
5 | SAMKKPPKTLTLVIVVKVPEEEMTEEQLEELARELAEALAPPGEKVEVKVEVERLPDGTVVVKIEIKLESAG [r14_389_TrROS_Hall] | 9.56 ± 0.381 | 8.28 ± 0.28 | 9.31 ± 0.711
6 | SAMKLTTLSESSDPATGVRYLTVAIPSSQDDLIKEIAEELEKKGVKATILTPNVPAGSSVTIKLEFKGKSAG [r14_354_JUSTAS] | 0.456 ± 0.711 | 2.76 ± 0.669 | 1.99 ± 0.711
7 | SAMKLVTLEDGTVIETENLSLEEIKERFGGGSISVSDVPPSPAFRVESEEEREALEKEVGPGFVVVEEGSAG [r14_445_JUSTAS] | 2.42 ± 0.134 | 0.453 ± 0.46 | 1.73 ± 0.343
8 | SAMKVTIEPLEDGSTVITLDDGTEITFSAPGSGAPILAKVTPLPNTGVVRVDIYHPEGGKLLAPLVVPLSAG [r14_975_TrMRF] | 2.75 ± 0.142 | 2.42 ± 0.393 | 3.07 ± 0.222
9 | SAMKYLVEVTADLGGPSVRYELDAESIEEAIEKVKEKLKPLFPDAPLKNITLTFHDPSSDETTTVNIVESAG [r14_54_JUSTAS] | 14.1 ± 0.28 | 14.81 ± 0.13 | 14.6 ± 0.259
10 | SAMKYTITVKGDIESVRNFLLDKLDFDIEVSSTPDGTTVITITMDEEKVSELKELLKAHPNFPTTVNKESAG [r14_521_JUSTAS] | 11.5 ± 0.36 | 17.3 ± 0.184 | 16 ± 0.46
11 | SAMLPEGERKPFLVKVKIETPEGTPEFEAPVITEPPQKIHVSIDFDIPEGEHKIKIEFFGPKLEFEFDISAG [r14_280_TrMRF] | 7.81 ± 0.46 | 10.1 ± 0.502 | 9.56 ± 1.84
12 | SAMMTPEERAFVERLRALFAERGGRIEIRFFEEPDRIEILVEEDDPELIREIREELARIPFPISRIVEESAG [r14_284_TrMRF] | 10.18 ± 0.0669 | 15.46 ± 0.0502 | 13.9 ± 0.167
13 | SAMMVVYYDPETGELVLVDPSEIPPELVEKGIEPVRLVPLRILVEVESEEEAEELARLFPDLVEVSLNPSAG [r14_638_TrMRF] | 8.24 ± 0.188 | 7.67 ± 0.134 | 7.86 ± 0.41
14 | SAMPAENMTPEEAAELALAYVERFRAEVEALGGPIPADTEIVVPVTLEGPPVEIKITFINPDEVEVEVASAG [r14_501_TrMRF] | 6.11 ± 0.628 | 4.88 ± 0.377 | 5.59 ± 0.711
15 | SAMPIESVEFHPEEGVITLRFRAPAHPDAEKFEIEVVVDGAEAGEIEVEVDPETNEVRALVRVKIPKGASAG [r14_244_TrMRF] | 11.4 ± 0.418 | 17.7 ± 0.247 | 15.5 ± 1.05
16 | SAMPIPNKNVVIRAKRSPDGTWDLTITVDNEKLGSKKAKTEEELKALVEEIAKEIAEKLGPGNVTVVEESAG [r14_791_JUSTAS] | 11.5 ± 1.17 | 10.6 ± 0.628 | 11.2 ± 0.92
17 | SAMPIQIMVERDPDDGYIKVTIMFRSDSPEEAYELIETLFENLGVEVNIERYPEEGYFMIEVEIRLPPGSAG [r14_424_TrROS] | 14.4 ± 0.962 | 17.3 ± 1.38 | 16.3 ± 0.879
18 | SAMPLEDMTPEQAEEFAKEFINRFQQENQKKGGPIPPGQEIEIPVRYKGGPVYIKITVTNPGNINIEVESAG [r14_501_TrROS] | 1.87 ± 0.201 | 2.96 ± 0.397 | 2.77 ± 0.544
19 | SAMRMISFPIESPEELEDELEEKFGVEVETFPDGMRMIKFRRNNEPVIIMIPPNNGHITIIPPEDMDKMSAG [r14_402_TrROS] | 2.87 ± 0.795 | 5.34 ± 0.879 | 4.24 ± 0.628
20 | SAMSPEEIRARARALLEEKYPDKPYTLLSVEVDPSTGRVTVTWESPTPEKTTVTTPLTVTFGADGSLRESAG [r14_183_JUSTAS] | 8.484 ± 0.0502 | 8.254 ± 0.0711 | 8.47 ± 0.121
21 | SAMTITVTAPPGYTLNVTVTLAGGVPLTRTFSPSQSIDITIPEGTPFSLTVTTTAPGGEVATSTLTVPLSAG [r14_568_JUSTAS] | 13.4 ± 0.502 | 13.27 ± 0.0753 | 13.4 ± 0.393

Row | Sequence | folding stability dG unfold [1] [kJ/mol] | folding stability dG unfold [2] [kJ/mol] | folding stability dG unfold [3] [kJ/mol]
22 | SAMTIVLTLDEIAELLGLEKGESVEELRERIRELIRRLEEEGYRVTSITIEEVDGELVITVEIEPPPPESAG [r14_158_TrROS_Hall] | 14.1 ± 0.837 | 21.9 ± 0.879 | 20.5 ± 0.879
23 | SAMTKEEAKENGHIYIMVKIEVTWPNGGKREFPIFFPFPSLDEAKEQIRSFFRRMNFKVKIDDISIFPVSAG [r14_854_TrROS] | 12.5 ± 0.201 | 15.67 ± 0.113 | 14.8 ± 0.205
24 | SAMTLRIELTKEELEKLIKELKPGDEVELEIEVNGRTYRIRAKITRIERVDDKVYIEVELEIEELPEEESAG [r14_335_TrROS_Hall] | 18.7 ± 0.46 | 19.9 ± 0.268 | 19.4 ± 0.544
25 | SAMTLTLTVPPGAKVRVRITNENGETTEIEVEPGETVTITLPAGSTVRVEVEVVDPDGRKRTETFTLKPSAG [r14_568_TrROS_Hall] | 14.5 ± 0.46 | 13.5 ± 0.293 | 13.7 ± 0.628
26 | SAMTPEFFETIKEASREGDIAAVLEAAEAIKTEFPDTGLTVDVVIEPREDDRFVIEVRVDYPPNLEGLASAG [r14_690_TrMRF] | -0.596 ± 0.163 | -0.886 ± 0.46 | -0.294 ± 0.753
27 | SAMTPETERKLLEAPKTGDVEAVREAAEEIEKEYPGKGLVVTVTVSPLSDGTWEVEVTVELPPNLPELASAG [r14_690_JUSTAS] | 2.94 ± 0.502 | 1.13 ± 0.406 | 1.83 ± 1.59
28 | SAMTVEIEFPPELEVEELVEKLKEAFPGEEIEVEAERDPVEPRLRIRVTVDDPELAEEVEKKLRELVEESAG [r14_443_TrMRF] | 14 ± 0.628 | 9.25 ± 0.418 | 12.5 ± 0.502
29 | SAMTVERLPDGSLRITIPDPNSDTTYTIEIRRLPDGSYEVTITTTKPDGSTTTTTRPMSEEEAIAEVLASAG [r14_179_JUSTAS] | 15.7 ± 0.255 | 14.8 ± 0.285 | 15.1 ± 0.23
30 | SAMTVVIPPNLTALTEDGRPIHPDQVVEVYEAEAFPELGRVVARVKVFDPVSGEETEERLVLFFPDGAESAG [r14_258_TrMRF] | 5.26 ± 0.138 | 6.95 ± 0.0879 | 6.4 ± 0.151
31 | SAMTVYYKITAEVEKTIGDTPETLTVPLTLTVPPDKLNEEEIKKIAEEKAKELGYTLKKIEISKTPSLPSAG [r14_278_JUSTAS] | 9.29 ± 0.351 | 8.62 ± 0.711 | 8.85 ± 0.879
32 | SAMTYTLTPAGGKTITVTLNPDGSITITSTSTSSSLPLSPDAKITSVTFDAATGTITITLNSKPITIPASAG [r14_276_JUSTAS] | 7.96 ± 0.238 | 7.27 ± 0.711 | 8.05 ± 0.628
33 | SAMVIPAEVRLPGTPEEVLEKAREFADTLAARFRELGFEVVAVELEEIEPGEAVVRLRIVVARPDEEFPSAG [r14_973_TrMRF] | 11.5 ± 0.36 | 11.7 ± 0.126 | 11.9 ± 0.289
34 | SAMVITTSLEEARKRTGLSESASPEEVRAAVEALIAAETAAGVTLLAIELLEVGDTWTLRVEIERAGGVSAG [r14_158_JUSTAS] | 9.88 ± 0.238 | 7.18 ± 0.285 | 8.66 ± 0.322
35 | SAMVLDLTELLREKAAEIRKADPRPLTPEELRELAREAAEELAKETGKPITEIRVEETDEWPRITAVVLSAG [r14_147_JUSTAS] | 4.37 ± 0.184 | -1.5 ± 1.26 | 1.93 ± 1
36 | SAMVLRIKVEVNGETKEIEIELPPNAKIEKKDGELTIYVKNPETGKIFKFKFKKNAKIVEVEEVDPEDLSAG [r14_313_TrROS_Hall] | 10.9 ± 0.192 | 17.6 ± 0.218 | 16 ± 0.418
37 | SAMVTYDPEKGVFEAEIEVGGETLRVTVVRDPETGEVVAVVERPGSGEPVVLPLPFKSLSDVIRYAEEHSAG [r14_803_TrMRF] | 9.62 ± 0.293 | 10.4 ± 0.184 | 9.88 ± 0.46
38 | SAMVVIKPEGDKIVVEITLPDGSTKVIELPEVEKIEIKGDTLIITDPKTGKKIIPENTTVSNPKIEPAKSAG [r14_83_JUSTAS] | -0.7 ± 0.272 | -0.261 ± 0.268 | 0.292 ± 0.586
39 | SAMVVIPFPKDTPPEVALEAVRKAVREAAENGIVPEKIVVVAHPDLVFLVDSLVEAGIPLENVEFVPSESAG [r14_589_TrMRF] | 12 ± 0.289 | 12 ± 0.238 | 12 ± 0.218
40 | SAMVVPVKVELEIRVPGTPEEALEIAEELAKAFESLGNVEVDLELIEKSEDGSYIIKLTVTNYLPPELFSAG [r14_413_TrMRF] | 3.79 ± 0.418 | 8.32 ± 0.46 | 6.4 ± 0.879
41 | SAMYEPAEFSFTLPNGEKIHITAPKNPNTDEPIVSITIYRKLPDGNTVSFTITVKSSDIDEIIEKLGIKSAG [r14_416_TrMRF] | 14.2 ± 0.397 | 15.6 ± 0.46 | 15.3 ± 1.34
42 | SANDDDWVTVIFEIPIVRKDPDGKPEKHPFRLMVQVHPDGRVEINIMYPNGRPIASQTVPPGQTLEDFISAG [r14_559_TrROS] | 11 ± 0.544 | 16.1 ± 0.322 | 14.1 ± 0.962
